Assay: soluble on expression in E. coli; label from the status in PepcDB or PDB records

MSLNFDWIKTRSDFDDDKPAVIDHAKQTSWTYQQLNARADNMAHYLTSQGVKKGDVIGIFAPNDIAILDLLFACFKTGAVFLPLNWRLNPKEIAAIVEDAQLKLLFYAEKHLSSLTDIDQNLLHMDIDVAQYDEIVNPDYHQPFQATPVEPQDLAALIYTSGTTGSPKGVMFSYESFVHNGANLELTYKFNSNYITIVSTPMFHVLGFNDTVLPVLMSGGTLILQRYFNGEELNDMIAQYHPTFIIMIPTMYYSTLRASNFNPENFRAMDYIIQGGSQPLPSIQAAFKQYGINIINGYGLTEAPLVLVNTPENSKRKPMSIGKAVMFVDARILDDNGEEVPTGEIGELAIKAKNVTPGYWNKPAETAKAFHGRYLLTGDLAKMDDDGDIFIIDRKKELIITGGENVLPSEVENALAEHPLVDRCVVVGYDHPKYGESIAAAIILREDEPHYAEILDQHMRSRLAGYKVPRMYVPVTHMPLNSTQKPDKLAIRQMMNDKVSQTLEGHHHHHH
soluble on expression in E. coli: soluble

LFLPNTRAYRRYNRSVWAVRGSTRPQWQPPPKFQHAKCMSMRLAHRLQILLDDECHRRITAVARERGVPVATVVREAIDRGLVSPAGRRKSAGRRLLDAADMSVPEPRELKQELEALRARRG
soluble on expression in E. coli: not soluble

MIDMTSKKRAVAPRDLYRRWPWANTAGMEPDMVRLQIFVQNLERAVIGDGRMRPVTSPSEFCDNIGISHATLGRILRGEVIPRFDTIDKLERGVGRALFPPFEDVRVRGNKG
soluble on expression in E. coli: not soluble

MAHHHHHHGICSSAPTLGEIWKRKLNQLDAKEFMAYRRRFVVEVDRNEAREALAKGKTNTGHAVSRGTAKLAWIDERGGVELKGTVVDLGCGRGSWSYYAASQPNVREVKAYTLGTSGHEKPRLVETFGWNLITFKSKVDVTKMEPFQADTVLCDIGESNPTAAVEASRTLTVLNVISRWLEYNQGCGFCVKVLNPYSCDVLEALMKMQARFGGGLIRVPLSRNSTHEMYFVSGIKNNIMGNVTAVSRQLLKRMEEQGGERVVPDYKFSTGTRSNL
soluble on expression in E. coli: soluble

APAHADHQITKRTDAENMYNTIQFLSQAPRVAGSPEELKAVRYIEQQFKSYGYHVEVQPFQFEGYTAPSEVTLKIGTEKKEGEAFTYSPNSDVTAELVYVGLGTTADVAGKDLNGKIALIQRGNISFADKVRNAAKQGAKAVIIYNNTDGKLNGTLGGSDASFVAAVGITKQEGDALAANLRAGEKITATVKVAGAEVKTLTSHNVIATKKPDANKKNTNDIIIIGSHHDSVEKAPGANDDASGVAVTLELARVMSKLKTDTELRFITFGAEENGLIGSKKYAASLSEDEIKRTIGMFQLDMVGSKDAGDLIMYTIDGKKNRVTDLGAAASSRLSGVLPYGQEGRSDHESFHALGIPAALFIHAPVEPWYHTPNDTLDKISKEKLDNVADIVGSAVYQAARPGELVIEPIDYPRRNVELQN
soluble on expression in E. coli: soluble

KTQGFLTMSRRRISCKDLGHADCQGWLYKKKEKGSFLSNKWKKFWVILKGSSLYWYSNQMAEKADGFVNLPDFTVERASECKKKHAFKISHPQIKTFYFAAENVQEMNVWLNKLGSAVIHQESTTKDEECYSESEQEDPEIAAETPPPPHASQTQSLTAQQASSSSPSLSGTSYSFSSLENTVKTPSSFPSSLSKERQSLPDTVNSLSAAEDEGQPITFAVQVHSPVPSEAGIHKALENSFVTSESGFLNSLSSDDTSSLSSNHDHLTVPDKPAGSKIMDKEETKVSEDDEMEKLYKSLEQASLSPLGDRRPSTKKELRKSFVKRCKNPSINEKLHKIRTLNSTLKCKEHDLAMINQLLDDPKLTARKYREWKVMNTLLIQDIYQQQRASPAPDDTDDTPQELKKSPSSPSVENSI
soluble on expression in E. coli: soluble

GPGSMNKSAKDTANPLFPATAIATIDVRAIVANYRTLAQHVAPTECSAVVKANAYGLGAHKIAPALYQAGCRTFFVAQIEEALQLKAVLPENVMIALLNGFPHKAEEFVAQSGIIPLLNSWSTIEDWQTLCQKKNKKFPAIIQVDTNMSRLGLDKKELQKLIKNPTIFEKAEIKYILSHLANGEDASHSSNNKQLAAFKRVLAQLPTCKVSFANSGGIFLGSDFYFDLVRPGIALYGVDPHGKHPTPLKAVVKVEAQVLQSRFIDAGIPVGYRESFMTRRPSTLATISIGYADGWPRILSNKGTVYFNGHKLPIVGHISMDSIIVDATDLDKKPQRGDWVELIGPHQPLEKVSTDTNTIPHEILTSLGKRYKRIYI
soluble on expression in E. coli: soluble

MSLEDHAEELASDLGVDKEEVTRDLENLVNYSVPMDEAKQSLRRKYGDGSSGGDSTPSSKAINEVSTEDSNVTVTAVVLTSGRRSIQYNGEQHVIREGELADETGKISYTAWDGFSGDLQPGQTVQLGNAGVREWDGQPELNLGDSTDPEVVDETLDIDYDVGGRAALQDLAPGDRGITVEVQVLECEQKVIDGRDGETTILSGVLGDESGRLPFTDWDPHDEIEEGASVRLDETFVREFRGAPSVNVSEFSAVTALDRTVGVTEDAPRLSVREAVESGGLFDVELAGNVIEVRDGSGLIERCPECGRVIQNGQCRSHGAVEGEDDLRTKAILDDGTDTVTAVLDDELTARVYGGDLDDAREHARDAMDKEVVAERISDRIVGREYVVRGSLSVDEYGANLTASTFAEADDDPATRAQALLQEADTLEHHHHHH
soluble on expression in E. coli: soluble

KVKWTHEEDEQLRALVRQFGQQDWKFLASHFPNRTDQQCQYRWLRVL
soluble on expression in E. coli: soluble

MLGAMSLRLSEFRETNLLDKILFGVLSPHEIRQLAKVTVVRGDLYEADGTPVSGGLRDPHFGAIEPGERCPVCGNSREECPGHFGKIELARPVLIPHYTDYVYKILQATCRVCGRITLPEEKIKYYRLIFRRLRGKWPQLAKTFATMVVKEAAQATQCPHCGKPQYKVVYIRPFHFYEKKPEGDVKLTPSEIRERLEKTGSEIEILGVHPERSRPEWMVATVLIVPPLAVRPSITLETGLRSEDDLTHALAEIVRQNEKLRNVIVTNAPETLIEENWMVLQEMVAAYIDNELPGARRLTHRRKRYLKTLAQRLKGKDGRIRGNLSGKRVNYSARTVISPDPYISINEVGVPEEIAKTLTIAMRVTPYNLEEARRYVLNGPDKWPGALFVYKASERKKYDLRFFKDYEKLAESLEPGDVVERHLINGDIVLFNRQPSLHRMSIMGHIVRVMPGKTFRLNLLVCPPYNADFDGDEMNLHVPRLEEAQAEAREIMLVEKHILTPRYGGPIIGGRQDYVSGAYLLTVKTRLFTKEEVERLLSVAGYKGDLPEPAILKPEPLWTGKQLASIFLPEDLSFKGKSKTNAGDLACSDELCLHDSYIVITNGKLLEGVLDKKAIGAEEPNNLLHIIALEYGNSKARQLLDSFYRMFIRMLELRGLTISLHDIDLPDRAKQEIEELIREYKGRVYSIIEEYRKGTLEPIPGRSLEESLEIKIMEVLDELRKRVQEVASNNLDPFNDVFVMARTGARGSDVNISQMAAMLGQQAVRGRRIRRGLRNRVLAHFKENDIEPEAWGFVRSSFRKGLRPTEVFFHAAAGREGLVDTAVKTSQSGYMQRRLINALQDIVVTYDGTVRDLYGNLIQLKYGEDGVDPMKTYHGKPVDVKRIIQRVKASKAETV
soluble on expression in E. coli: soluble

MQNNSYGYAVSVRVGGKEHRHWERYDIDSDFLIPADSFDFVIGRLGPEAAIPDLSGESCEVVIDGQIVMTGIIGSQRHGKSKGSRELSLSGRDLAGFLVDCSAPQLNVKGMTVLDAAKKLAAPWPQIKAVVLKAENNPALGKIDIEPGETVWQALTHIANSVGLHPWLEPDGTLVVGGADYSSPPVATLCWSRTDSRCNIERMDIEWDTDNRFSEVTFLAQSHGRSGDSAKHDLKWVYKDPTMTLHRPKTVVVSDADNLAALQKQAKKQLADWRLEGFTLTITVGGHKTRDGVLWQPGLRVHVIDDEHGIDAVFFLMGRRFMLSRMDGTQTELRLKEDGIWTPDAYPK
soluble on expression in E. coli: not soluble

MAHHHHHHMSARKFAGEYVSRHLDGLTVLASLADRPAAAKPVICTHNGSFHCDEAMACGLLRHVPEYREAVILRTRDPKQIDACDIVVDVGAIYDADTNRYDHHQASFHGTMTTPKKAYKTRLSSAGLVYKHFGRQIICEYVEAVLQPSSPARAAVLSMTSWSESRTGLSEAELDVLEDALYAHFVEQVDGIDNGVECWGLADPAVGTLVPNYTQSTSLSQRIGQLQAYWNEPENGDVVAENANFAVAVEMAVTEFFKALTYLSFSWLPARSIVEAAFQRRHEFDESGKIMVFKGVKACPWKDHLLELEAESNCLGAVLYVVFSDGKGWRVQAVPKTSTSFENRKPLPYRGLRDDALSAACGIEGGVFVHVSGFIGGMKTFDGAMALAKQALVVVN
soluble on expression in E. coli: soluble

MSLDNSRTRPRVGHIQFLNCLPLYWGLARTGTLLDFELTKDTPEKLSEQLVRGDLDIGPVTLVEFLKNADDLVAFPDIAVGCDGPVMSCVIVSQVPLDRLDGARVALGSTSRTSVRLAQLLLSERFGVQPDYYTCPPDLSLMMQEADAAVLIGDAALRANMIDGPRYGLDVHDLGALWKEWTGLPFVFAVWAARRDYAEREPVITRKVHEAFLASRNLSLEEVEKVAEQAARWEAFDEDTLAKYFTTLDFRFGAPQLEAVTEFARRVGPTTGFPADVKVELLKPEGHHHHHH
soluble on expression in E. coli: soluble

SLKQPVFKKVLQVGIVVHDLEKAVRTYADDFGIGPWQFYNLDKSNMHDMKMRGEKAEFSMKVAFTDLGGVQLELIEPLDESIYSDFLREHGEGIHHIACGVRNFEETMASMQKKDIKVLLEGTTSAGMGYVYLDTTDALSCITEIYRIPENLQYIPPDKTYEG
soluble on expression in E. coli: soluble

MGSDKIHHHHHHDKNSAPGFSFTTDSILTLTFDKELDAAFVGVGTQNYNPVGMRRSGDTLFIANRAEGSDGVWVVRASTGELLYSLTGWTYNGKNEKFDNQVMDVAVSSDYIFVVNRSSRIDLFRRNDYSYVTTIGRTGWQSSSLLQCEAAEVAGDKLFIRDKQKIKVVQISDCTPENRFKVPVFAQNTDSTSSNNGFNLESVARHEGLIYVSDYETSRILVIDPATVAVKGEPVRFLRSYRMPNKPLSMGFFQNEMYVVCANNCIVRVDLRTGKELGSYSSFAGGVGLGTPGRLLFHNDTFYLAGRNANAPRLIQGKVMFVEISELD
soluble on expression in E. coli: not soluble

SIAILVIMHGESTASSMVNVANTLLDCNHAVAINMGLEDRVQDILVQAVEIANKIDKGKGILILTDMGSILTFAKVIRDATGKEVKAIDMVSTPIVIEATRKALTPEMTLEKLYFNIIESIKKHYGDMEVTYAEKDNGGRY
soluble on expression in E. coli: not soluble

MTDTRVLAVANQKGGVAKTTTVASLGAAMVEKGRRVLLVDLDPQGCLTFSLGQDPDKLPVSVHEVLLGEVEPNAVLVTTMEGMTLLPANIDLAGAEAMLLMRAGREYALKRALAKFSDRFDVVIIDCPPSLGVLTLNGLTAADKAIVPLQCEMLAHRGVGQFLRTVADVQQITNPNLRLLGALPTLYDSRTTHTRDVLLDVADRYDLQVLAPPIPRTVRFAEASASGSSVMAGRKNKGAVAYRELAQALLKHWKTGRPLPTFTVDL
soluble on expression in E. coli: soluble

MGSDKIHHHHHHMIRIANGQGFWGDWLEAPVRLVEQGPLDYLALDYLAEVTMSILQKQKQADPKLGYARDFPPLIARIAEQIRERGVTVIANAGGVNPVACAREVVRLAPGLKVAVVLGDDVYPRLDSFLAKGYEMRDMDTGEPIAAIRDRIQSANAYIGAFPLAEALGTGANVVIAGRSTDTALALAPMVHRFGWGPDAFDRLAAGTIAGHIIECGAQCTGGNCQVDWESIPDMANIGYPIVEAEPDGSFVVTKHPAAGGRVSLDSVKEQLLYELGDPQRYITPDCIADFTSVRLAADGPDRVRVTDIRGGPRPPSLKLSISYANGWKAVGTLVYSWPQALAKARAADRIVRERLRNLGLSFEEIHTEFFGVSACHGALAPPNPDPPEVQLRIGVRGQDKKAVDRFTRELIPLVLNGPPGATGFGEGRPPVREIVAYWSTLVPREEIDTRVEVVE
soluble on expression in E. coli: not soluble

From the DeepSol protein solubility set
